Laboratory results reported in the Immune Epitope Database (IEDB).

molecular target: HLA-B*07:02; assay: IEDB peptide-MHC binding, purified MHC/competitive/fluorescence; ≥ and ≤ were set here for values at or beyond the usual limits of such assays; conditions: source organism: H1N1 subtype

Going from LPFDKITIM to LPFDRPTIM, the IC50 rises from 4.81 µM to 7.91 µM (1.6-fold).

LPFEKTTIM and LPFGKTTIM are within 1.5-fold of each other in IC50: 1.19 µM for the first, 0.881 µM for the second.

same assay, conditions: source organism: H1N1 subtype Influenza A/Oklahoma/7485/01

LPFDKTTIM showed an IC50 of 0.192 µM.

same assay, conditions: source organism: H3N2 subtype

First: LPFDKPTIM
Second: LPFDKQTIM
The IC50 of the first is 140-fold lower: 0.335 µM for the first, 46.5 µM for the second. The first is the more potent here.

Compared with LPFEKSIVM, LPFERATII is 2.4-fold higher in IC50: 0.494 µM for the first, 1.18 µM for the second. The first is the more potent here.

In the case of LPFERSTVM, the IC50 is reported as ≥ 149 µM.
